One assay deals with SARS-CoV S1 (SARS-CoV, UniProt P59594 14-667). Nature of the assay: Octet (BLI) specificity, Fig. 12. On the technique in general: In BLI a coated tip is dipped into the sample, and binding shifts an interference pattern.
The next assay has as its target T1, MERS-CoV RBD (MERS-CoV, UniProt K9N5Q8 367-606).
T1 sequence: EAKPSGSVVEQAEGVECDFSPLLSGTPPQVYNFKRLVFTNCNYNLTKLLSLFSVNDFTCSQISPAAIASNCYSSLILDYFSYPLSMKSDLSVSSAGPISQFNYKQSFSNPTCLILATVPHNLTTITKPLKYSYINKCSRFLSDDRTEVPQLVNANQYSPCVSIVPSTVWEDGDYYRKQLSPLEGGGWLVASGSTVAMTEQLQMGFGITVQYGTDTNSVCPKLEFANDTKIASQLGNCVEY
Nature of the assay: Octet (BLI) specificity, Fig. 12.

Assay [1] addresses T2, SARS-CoV-2 spike D614, on pseudovirus (SARS-CoV-2, UniProt P0DTC2 14-1273). Nature of the assay: cell-based or functional assay.
The target in assay [2] is T2, SARS-CoV-2 spike D614, on pseudovirus. Nature of the assay: cell-based or functional assay. This is another data set of the same source.
The target is the same in assay [3]. Kind of assay: cell-based or functional assay. The source holds these as a separate data set.

Like-named read-outs stand apart in the source and are kept apart here.

B1: No. 139 항체 (Full IgG) (antibody, V domains shown)
VH: QITLKESGPTLVKPTQTLTLTCSFSGFSLSTSGVGVGWIRQPPGKALEWLALIDWDDNKYHTTSLKTRLTISKDTSKNQVVLTMTNMDPVDTATYYCARIPGFLRYRNRYYYYGMDVWGQGTTVTVSS
VL: ELVLTQPPSVSAAPGQKVTISCSGSSSNIGNNYVSWYQQLPGTAPKLLIYDNNKRPSGIPDRFSGSKSGTSATLGITGLQTGDEADYYCGTWDSSLSAGVFGGGTELTVL
notes: also called CT-P59; Regdanvimab
B1: the binding result in the assay with SARS-CoV S1 and with MERS-CoV RBD was “no binding” throughout. Besides, the “pseudovirus 중화능 IC50” value in assay [1] came to 0.535 ng/mL; in assay [2] it was 0.35 ng/mL; in assay [3], 0.378 ng/mL.

These data come from KR20220012826A (dated 2022).
